# B1: ferrochelatase (FECH) (protein)
# chain: GAKPQVQPQKRKPKTGILMLNMGGPETLGDVHDFLLRLFLDRDLMTLPIQNKLAPFIAKRRTPKIQEQYRRIGGGSPIKIWTSKQGEGMVKLLDELSPNTAPHKYYIGFRYVHPLTEEAIEEMERDGLERAIAFTQYPQYSCSTTGSSLNAIYRYYNQVGRKPTMKWSTIDRWPTHHLLIQCFADHILKELDHFPLEKRSEVVILFSAHSLPMSVVNRGDPYPQEVSATVQKVMERLEYCNPYRLVWQSKVGPMPWLGPQTDESIKGLCERGRKNILLVPIAFTSDHIETLYELDIEYSQVLAKECGVENIRRAESLNGNPLFSKALADLVHSHIQSNELCSKQLTLSCPLCVNPVCRETKSFFTSQQL
# modifications: 100 uM 5-nitroisatin
# B2: ferrochelatase (FECH) (protein)
# chain: B1 chain
# modifications: 100 uM isatin
# B3: ferrochelatase (FECH) (protein)
# chain: B1 chain
# modifications: NHS/EDC-treated immobilized FECH
# B4: ferrochelatase (FECH) (protein)
# chain: B1 chain
# modifications: 100 uM 5-fluoroisatin
# B5: ferrochelatase (FECH) (protein)
# chain: B1 chain
# B6: ferrochelatase (FECH) (protein)
# chain: B1 chain
# modifications: 100 uM 5-methylisatin
# B7: ferrochelatase (FECH) (protein)
# chain: B1 chain
# modifications: 100 uM 5,7-dichloroisatin
# B8: ferrochelatase (FECH) (protein)
# chain: B1 chain
# modifications: 100 uM 5-bromoisatin
# B9: ferrochelatase (FECH) (protein)
# chain: B1 chain
# modifications: 100 uM 5-iodoisatin
# Key:
# Experiment in all cases: SPR
# [1] = molecular target: Adrenodoxin reductase (Homo sapiens) (UniProt P22570); conditions: cited from earlier work
# [2] = molecular target: Adrenodoxin reductase (Homo sapiens) (UniProt P22570); conditions: cited from earlier work; remark: listed apart in the source
# [3] = molecular target: B5
# [4] = molecular target: T1, adrenodoxin reductase (ADR) (Homo sapiens, UniProt P22570)
# T1 chain: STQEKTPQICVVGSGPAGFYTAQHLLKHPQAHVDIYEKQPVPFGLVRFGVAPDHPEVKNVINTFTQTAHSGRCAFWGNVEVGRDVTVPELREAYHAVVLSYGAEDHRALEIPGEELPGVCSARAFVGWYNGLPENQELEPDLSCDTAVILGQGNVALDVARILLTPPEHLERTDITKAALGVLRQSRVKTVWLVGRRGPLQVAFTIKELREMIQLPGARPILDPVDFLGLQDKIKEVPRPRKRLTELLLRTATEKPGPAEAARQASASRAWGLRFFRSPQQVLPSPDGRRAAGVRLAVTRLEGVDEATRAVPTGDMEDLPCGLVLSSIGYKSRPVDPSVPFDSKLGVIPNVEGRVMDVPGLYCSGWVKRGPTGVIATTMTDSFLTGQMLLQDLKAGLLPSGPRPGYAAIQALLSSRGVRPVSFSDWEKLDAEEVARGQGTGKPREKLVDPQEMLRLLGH
# [5] = molecular target: the molecule itself
Molecule,Kd [1],Kd [2],Kd [3],Kd [4],Kd [5]
Ferrochelatase (from UniProt P22830),13 µM,2000 nM,–,–,–
B1,–,–,560 nM,13.7 µM,–
B2,–,–,600 nM,3.4 µM,–
B3,–,–,~500 nM,–,–
B4,–,–,610 nM,13.8 µM,–
B5,–,–,–,15.2 µM,550 nM
B6,–,–,570 nM,14.3 µM,–
B7,–,–,580 nM,14.7 µM,–
B8,–,–,530 nM,15.5 µM,–
B9,–,–,540 nM,14.1 µM,–

# Source: PMC7593955 (2020)
